Target: mouse ZO-1 expressed in Sf21 insect cells (mouse, UniProt P39447 1-1745)
Experiment: pull-down

Sequence of mouse ZO-1 expressed in Sf21 insect cells (P39447 whole entry): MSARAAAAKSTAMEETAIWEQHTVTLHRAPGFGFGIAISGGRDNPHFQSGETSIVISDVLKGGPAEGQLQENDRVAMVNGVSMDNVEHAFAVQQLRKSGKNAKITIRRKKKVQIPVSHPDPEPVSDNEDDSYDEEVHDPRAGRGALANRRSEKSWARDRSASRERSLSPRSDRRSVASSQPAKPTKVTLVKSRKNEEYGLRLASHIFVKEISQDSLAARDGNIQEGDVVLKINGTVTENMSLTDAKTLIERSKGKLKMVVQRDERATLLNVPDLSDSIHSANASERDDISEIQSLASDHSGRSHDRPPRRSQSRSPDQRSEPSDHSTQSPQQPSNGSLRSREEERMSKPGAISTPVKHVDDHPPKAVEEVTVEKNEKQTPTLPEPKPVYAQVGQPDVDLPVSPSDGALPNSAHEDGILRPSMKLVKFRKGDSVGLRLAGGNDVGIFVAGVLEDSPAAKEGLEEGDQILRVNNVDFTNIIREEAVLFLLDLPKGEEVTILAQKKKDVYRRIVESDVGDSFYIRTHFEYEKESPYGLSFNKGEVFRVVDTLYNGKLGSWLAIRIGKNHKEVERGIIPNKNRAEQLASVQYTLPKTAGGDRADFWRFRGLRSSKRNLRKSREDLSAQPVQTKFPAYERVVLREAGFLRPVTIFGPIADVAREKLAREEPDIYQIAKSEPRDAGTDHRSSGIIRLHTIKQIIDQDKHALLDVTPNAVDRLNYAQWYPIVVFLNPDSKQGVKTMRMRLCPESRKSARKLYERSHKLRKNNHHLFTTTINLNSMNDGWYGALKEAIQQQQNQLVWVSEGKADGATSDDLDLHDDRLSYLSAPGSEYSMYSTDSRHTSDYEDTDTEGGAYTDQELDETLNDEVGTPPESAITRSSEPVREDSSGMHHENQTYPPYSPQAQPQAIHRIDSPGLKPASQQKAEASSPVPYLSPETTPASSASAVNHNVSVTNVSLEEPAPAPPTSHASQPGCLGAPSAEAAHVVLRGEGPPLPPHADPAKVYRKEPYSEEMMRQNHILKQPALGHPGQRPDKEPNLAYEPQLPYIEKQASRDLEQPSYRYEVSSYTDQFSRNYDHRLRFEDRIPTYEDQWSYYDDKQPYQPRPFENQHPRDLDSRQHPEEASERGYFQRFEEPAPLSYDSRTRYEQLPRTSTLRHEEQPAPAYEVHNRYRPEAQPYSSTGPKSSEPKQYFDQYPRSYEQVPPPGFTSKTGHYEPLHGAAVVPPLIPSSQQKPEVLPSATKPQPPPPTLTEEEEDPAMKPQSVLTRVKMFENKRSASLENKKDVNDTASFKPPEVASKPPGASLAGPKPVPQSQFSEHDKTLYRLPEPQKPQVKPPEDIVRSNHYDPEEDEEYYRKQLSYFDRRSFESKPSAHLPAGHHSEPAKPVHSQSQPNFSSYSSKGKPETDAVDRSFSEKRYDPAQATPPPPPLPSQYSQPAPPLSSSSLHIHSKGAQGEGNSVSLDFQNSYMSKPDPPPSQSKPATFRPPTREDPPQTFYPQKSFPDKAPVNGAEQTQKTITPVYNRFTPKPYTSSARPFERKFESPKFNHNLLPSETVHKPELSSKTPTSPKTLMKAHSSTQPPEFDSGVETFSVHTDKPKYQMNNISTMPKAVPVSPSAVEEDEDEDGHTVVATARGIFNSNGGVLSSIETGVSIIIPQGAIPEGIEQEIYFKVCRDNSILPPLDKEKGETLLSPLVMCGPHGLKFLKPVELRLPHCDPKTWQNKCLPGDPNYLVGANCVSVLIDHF

B1: GST-XC(1-378), GST fused to Xenopus laevis cingulin residues 1-378 (domain or fragment, UniProt Q9PTD7 1-378, looked up)
chain: MERDIYGDMADQHIPVGQGVQIRFIGDLKENGKPRGKRSKQDSYGVAVRVQGIDGQPFVVLNSGDKAKSSFGVQIKSQEPYLNASNTSPPNYQNYSSKPRGPSRSISSESELPENPYGSRGYRPSSSHYSSASDEEQKPRGNIRGSDGLSSLPRPLQASRREELRRSQSHSSLLEPDVEESYDYDHHYSERSSTLDTTYSQSSRDSAWSRSSQKKIDNGDYPSLGYRSATSQQSTSVSNKTKKNGLSTSSPSNQSNEDIDTKPLSSVDSLINKFDIKGQVRGRTARRSQALKDERKRSQSLDGRKNYHDTADSREIIVEKQNEVQTMREPVNASNRSFNRQTLERGDISKTRLTKEWLDQDREEPVILKQQRTVQSEF
With B1 the Kd was about 5 nM.

— article PMC2174252 (The Journal of Cell Biology, 1999)
